The values that follow come from article PMC8977021, “bZIP transcription factors PcYap1 and PcRsmA link oxidative stress response to secondary metabolism and development in Penicillium chrysogenum”.

Data set [1] has as its target T1, PcAtf21 del319-319 (Penicillium chrysogenum Wis54-1255 (P. rubens Wis54-1255)) (UniProt B6HLX5).
T1 sequence: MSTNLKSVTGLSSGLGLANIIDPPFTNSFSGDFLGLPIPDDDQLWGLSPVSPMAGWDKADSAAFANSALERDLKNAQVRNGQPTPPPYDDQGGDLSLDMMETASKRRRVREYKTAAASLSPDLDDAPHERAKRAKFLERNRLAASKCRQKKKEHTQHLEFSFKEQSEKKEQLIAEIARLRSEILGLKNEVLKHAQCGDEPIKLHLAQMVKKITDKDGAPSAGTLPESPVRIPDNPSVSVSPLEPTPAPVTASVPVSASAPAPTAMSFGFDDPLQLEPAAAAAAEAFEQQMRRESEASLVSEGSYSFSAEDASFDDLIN
Description: EMSA. The conditions noted are these: LightShift binding buffer 1X, about 10% glycerol, 5 mM MgCl2, 20 fmol biotin probe, 10 ug protein, 20 uL, room temperature 20 min; 5% native PAGE in 0.5X TBE ….

In the next data set the target is T2, PcAtf21 (Penicillium chrysogenum Wis54-1255 (P. …, UniProt B6HLX5 1-318, del319-319)).
T2 sequence: T1 sequence
Description: EMSA; LightShift binding buffer 1X, about 10% glycerol, 5 mM MgCl2, 20 fmol biotin probe, 10 ug protein, 20 uL, room temperature 20 min; 5% native PAGE in 0.5X TBE; pH and salt not given. The conditions noted are these: protein: recombinant; tags: C-terminal c-myc-6xHis; chain copies: 2; label: 3' biotin; blunt.

Consider “AACATCGCCGTCGTTGAGTGCACGTTGCCTACTCTCTCGTGGCTTGGCTGGGCCCACGAGCCCGATTGACTCGACGGTGTTACTTGGGTATCTATGGCCCCGTTTTCTGGCACGGTAATGATAAGTACTTACTAGTCTTCGAGCGGGGGAGTGTTGCTCTGCCCGAGCATCAACGATTGGCCTGA (double strand) [probe 4]”, for which, in data set [1], the binding entry is reported as “no binding”.
Still for that read-out and setting: then “TGTTTATGCTGAGACAACCTGGAGACATTATACGCTTGCAGCCCAGATGCTTACTGGATGGGGCCGCTGGAGCCAGTGTAAAATTAGTAACCGTATCTCGAAGTCGGAGGGTCTTTGGTGGTCTGAGATTTCAGTCGGTCCGCACCGTGGCATTTGCAGACGGTGCGATCAGGCCAATCGTTGATGCTCGG (double strand) [probe 5]”, with “no binding”.

B1: NorR4 (dsDNA)
DNA 1: TTTCAACATTTCTTGAGTACTTTTCTAAGCCGTGACATAATGAACGGATCA
DNA 2: TGATCCGTTCATTATGTCACGGCTTAGAAAAGTACTCAAGAAATGTTGAAA
Take B1: in the data set with PcAtf21, the binding result is “binds”.

B2: penDE-CRE123 (dsDNA)
DNA 1: AGGTCCTGCATTAGCGTACGCCCCAGGTTTAGATCAAAGTTACGTAATTTATATGTA
DNA 2: TACATATAAATTACGTAACTTTGATCTAAACCTGGGGCGTACGCTAATGCAGGACCT
For B2, the binding result with PcAtf21 is reported as “no binding”.
